Data published in publication PMC4132694 (Cellular signalling, 2013).

B1: full-length wild-type (WT) SMTNL2 (Smoothelin-like 2), [35S]-labeled (natural protein, human, UniProt Q2TAL5-1 1-461, looked up)
chain: MEPAPDAQEARTVREALGRYEAALEGAVRALHEDMRGLQRGVERRVAEAMRLAGPLARTVADLQRDNQRLQAQLERLTRQVEALGLASGMSPVPGTPGTPSPPPAPGVPDRAPRLGSARFASHATFSLSGRGQSLDHDEASESEMRKTSNSCIMENGHQPGAGPGDGPPEIAQNFSAPDPPRPRPVSLSLRLPHQPVTAITRVSDRFSGETSAAALSPMSAATLGGLNPSPSEVITPWTPSPSEKNSSFTWSVPSSGYGAVTASKHSNSPPLVTPPQSPVSPQPPAITQVHRQGERRRELVRSQTLPRTSEAQARKALFEKWEQETAAGKGKGEARARLKRSQSFGVASASSIKQILLEWCRSKTLGYQHVDLQNFSSSWSDGMAFCALVHSFFPDAFDYNSLSPTQRQKNFELAFTMAENLANCERLIEVEDMMVMGRKPDPMCVFTYVQSLYNHLRRFE
modifications: [35S]-methionine label
B2: GST-JNK1 (human JNK1α1) (enzyme, UniProt P45983-2 1-384, looked up)
chain: MSRSKRDNNFYSVEIGDSTFTVLKRYQNLKPIGSGAQGIVCAAYDAILERNVAIKKLSRPFQNQTHAKRAYRELVLMKCVNHKNIIGLLNVFTPQKSLEEFQDVYIVMELMDANLCQVIQMELDHERMSYLLYQMLCGIKHLHSAGIIHRDLKPSNIVVKSDCTLKILDFGLARTAGTSFMMTPYVVTRYYRAPEVILGMGYKENVDLWSVGCIMGEMVCHKILFPGRDYIDQWNKVIEQLGTPCPEFMKKLQPTVRTYVENRPKYAGYSFEKLFPDVLFPADSEHNKLKASQARDLLSKMLVIDASKRISVDEALQHPYINVWYDPSEAEAPPPKIPDKQLDEREHTIEEWKELIYKEVMDLEERTKNGVIRGQPSPLAQVQQ
B3: GST-JNK3 (human JNK3α1) (enzyme, UniProt P53779-2 1-422, looked up)
chain: MSLHFLYYCSEPTLDVKIAFCQGFDKQVDVSYIAKHYNMSKSKVDNQFYSVEVGDSTFTVLKRYQNLKPIGSGAQGIVCAAYDAVLDRNVAIKKLSRPFQNQTHAKRAYRELVLMKCVNHKNIISLLNVFTPQKTLEEFQDVYLVMELMDANLCQVIQMELDHERMSYLLYQMLCGIKHLHSAGIIHRDLKPSNIVVKSDCTLKILDFGLARTAGTSFMMTPYVVTRYYRAPEVILGMGYKENVDIWSVGCIMGEMVRHKILFPGRDYIDQWNKVIEQLGTPCPEFMKKLQPTVRNYVENRPKYAGLTFPKLFPDSLFPADSEHNKLKASQARDLLSKMLVIDPAKRISVDDALQHPYINVWYDPAEVEAPPPQIYDKQLDEREHTIEEWKELIYKEVMNSEEKTKNGVVKGQPSPSAQVQQ

How the values were obtained:
Test in all cases: pull-down
GST-JNK1 (human JNK1α1) = target: B2
GST-JNK2 (human JNK2α2) = GST-JNK2 (human JNK2α2) (human, UniProt P45984-1 1-424)
GST-JNK3 (human JNK3α1) = target: B3
[1] = target: B1

Binder: B1
- percent of input bound (GST-JNK1 (human JNK1α1)): 8 % of input
- percent of input bound (GST-JNK2 (human JNK2α2)): 65 % of input
- percent of input bound (GST-JNK3 (human JNK3α1)): 50 % of input

Binder: B2
- Kd [1]: ~50 µM

Binder: B3
- Kd [1]: ~4 µM
